# In patent US20250043302A1, “MUTATED HYDROXYPHENYLPYRUVATE DIOXYGENASE POLYPEPTIDE, AND CODING GENE AND USE THEREOF” (BEIJING DABEINONG BIOTECHNOLOGY CO., LTD., priority 2021, published 2025):
# System: Arabidopsis thaliana T1 plants
# Assay: Mesotrione tolerance of transgenic Arabidopsis thaliana T1 plants (spray, bleached leaf area grade, damage score)
# Type: in vivo
# Parameters: Scores: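 damage score 0-100 computed as Σ(N×S)/(T×M)×100 over grades 0-3 with higher meaning more damage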
# Details: Arabidopsis thaliana T1 plants; for Grade 0 (classification and statistics of the grade of pesticide damage; number of plants) / Grade 1 (classification and statistics of the grade of pesticide damage; number of plants) / Grade 2 (classification and statistics of the grade of pesticide damage; number of plants) / Grade 3 (classification and statistics of the grade of pesticide damage; number of plants): 16 plants
# From the text: T1 transformants were initially selected from the untransformed seeds using a glufosinate selection scheme. The Arabidopsis thaliana T1 plants (AsHPPD-02) into which the AsHPPD-02 nucleotide sequence was introduced, the Arabidopsis thaliana T1 plants (AsHPPDm-F372A-02) into which the AsHPPDm-F372A-02 nucleotide sequence was introduced, the Arabidopsis thaliana T1 plants (AsHPPDm-F383W-02) into which the AsHPPDm-F383W-02 nucleotide sequence was introduced, the Arabidopsis thaliana T1 plants (AsHPPDm-F372A-F383W-02) into which the AsHPPDm-F372A-F383W-02 nucleotide sequence was introduced, the Arabidopsis thaliana T1 plants (DBN11726N) into which the control recombinant expression vector DBN11726N was introduced, and the wild-type Arabidopsis thaliana plants (CK) (18 days after sowing) were sprayed respectively with topramezone at three concentrations (100 g ai/ha (four-fold field concentration, 4×), 200 g ai/ha (eight-fold field concentration, 8×), and 0 g ai/ha (water, 0×)), isoxaflutole at three concentrations (140 g ai/ha (two-fold field concentration, 2×), 280 g ai/ha (four-fold field concentration, 4×), and 0 g ai/ha (water, 0×)), and mesotrione at three concentrations (210 g ai/ha (two-fold field concentration, […]), 420 g ai/ha (four-fold field concentration, 4×), and 0 g ai/ha (water, 0×)), to determine the tolerance of Arabidopsis thaliana to the herbicides. The degree of damage caused by the herbicide was measured for each plant according to the proportion of bleached leaf area (the proportion of bleached leaf area=bleached leaf area/total leaf area×100%) 7 days after spraying (7 DAT): the case where there is basically no bleached phenotype is defined as grade 0, the case where the proportion of bleached leaf area is less than 50% is defined as grade 1, the case where the proportion of bleached leaf area is more than 50% is defined as grade 2, and the case where the proportion of bleached leaf area is 100% grade is defined as grade 3.
# According to the method as described above in point 6 of Example 1, the aforementioned Arabidopsis thaliana T1 plants and wild-type Arabidopsis thaliana plants (CK) (18 days after sowing) were sprayed respectively with topramezone at three concentrations (25 g ai/ha (one-fold field concentration, 1×). 100 g ai/ha (four-fold field concentration, 4×), and 0 g ai/ha (water, 0×)), isoxaflutole at three concentrations (35 g ai/ha (half-fold field concentration, 0.5×). 70 g ai/ha (one-fold field concentration, 1×), and 0 g ai/ha (water, 0×)), and mesotrione at three concentrations (52.5 g ai/ha (half-fold field concentration, 0.5×), 105 g ai/ha (one-fold field concentration, 1×), and 0 g ai/ha (water, 0×)) to detect the tolerance of Arabidopsis thaliana to the herbicides.
# According to the method as described above in point 6 of Example 1, the aforementioned Arabidopsis thaliana T1 plants and wild-type Arabidopsis thaliana plants (CK) (18 days after sowing) were sprayed with topramezone at three different concentrations (i.e., 100 g ai/ha (four-fold field concentration, 4×), 200 g ai/ha (eight-fold field concentration, 8×) and 0 g ai/ha (water, 0×)), isoxaflutole at three different concentrations (i.e., 140 g ai/ha (two-fold field concentration, 2×), 280 g ai/ha (four-fold field concentration, 4×) and 0 g ai/ha (water, 0×)), and mesotrione at three different concentrations (i.e., 210 g ai/ha (two-fold field concentration, 2×), 420 g ai/ha (four-fold field concentration, 4×) and 0 g ai/ha (water, 0×)) respectively to detect the herbicide tolerance of Arabidopsis thaliana. […]
Molecule,Resistance evaluation (mesotrione 52.5 g ai/ha),Scores (mesotrione 52.5 g ai/ha),Grade 0 (classification and statistics of the grade of pesticide damage; number of plants) (mesotrione 52.5 g ai/ha),Grade 1 (classification and statistics of the grade of pesticide damage; number of plants) (mesotrione 52.5 g ai/ha),Grade 2 (classification and statistics of the grade of pesticide damage; number of plants) (mesotrione 52.5 g ai/ha),Grade 3 (classification and statistics of the grade of pesticide damage; number of plants) (mesotrione 52.5 g ai/ha),Resistance evaluation (mesotrione 105 g ai/ha),Scores (mesotrione 105 g ai/ha),Grade 0 (classification and statistics of the grade of pesticide damage; number of plants) (mesotrione 105 g ai/ha),Grade 1 (classification and statistics of the grade of pesticide damage; number of plants) (mesotrione 105 g ai/ha),Grade 2 (classification and statistics of the grade of pesticide damage; number of plants) (mesotrione 105 g ai/ha),Grade 3 (classification and statistics of the grade of pesticide damage; number of plants) (mesotrione 105 g ai/ha)
"PfHPPD-02: nucleotide sequence encoding wild-type Pseudomonas fluorescens HPPD; vector DBN11770 (nucleic acid, PfHPPD-02 Nucleotide Sequence, vector DBN11770) DNA: ATGGCCGATTTGTACGAGAACCCAATGGGACTCATGGGTTTCGAGTTCATTGAGTTCGCTTCCCCCACCCCAGGTACTTTGGAGCCTATTTTCGAGATCATGGGCTTCACTAAGGTTGCCACACACAGGTCTAAGAATGTGCATCTCTACCGCCAAGGAGAGATTAACCTGATCCTTAACAATGAGCCTAATAGCATCGCCTCATACTTCGCTGCTGAGCATGGTCCATCTGTTTGCGGCATGGCTTTCAGAGTGAAGGATTCACAAAAGGCCTACAACAGGGCTTTGGAGCTCGGCGCCCAGCCCATTCATATCGACACCGGACCTATGGAGCTGAATCTTCCTGCCATTAAGGGCATCGGCGGAGCTCCATTGTACCTCATTGATCGCTTCGGCGAGGGCTCCTCTATCTACGATATCGACTTCGTGTACCTGGAGGGCGTTGAGAGAAACCCTGTGGGAGCTGGTCTGAAGGTTATCGACCACCTTACTCATAATGTTTACAGAGGAAGGATGGTGTACTGGGCCAACTTCTACGAGAAGCTGTTCAATTTCCGCGAGGCTAGATACTTCGATATTAAGGGCGAGTACACAGGACTTACCTCCAAGGCCATGTCTGCTCCCGACGGTATGATTAGGATCCCATTGAACGAGGAGAGCTCAAAGGGCGCCGGACAGATTGAGGAGTTCCTCATGCAATTCAATGGTGAAGGCATCCAGCACGTTGCTTTCCTGACAGATGACCTTGTGAAGACCTGGGATGCCCTCAAGAAGATTGGCATGAGGTTCATGACCGCTCCACCTGACACTTACTACGAGATGTTGGAGGGACGCCTCCCTGATCATGGCGAGCCCGTTGACCAGCTGCAAGCTAGAGGAATCCTCCTGGATGGTTCCTCTGTGGAGGGCGACAAGAGGCTTTTGCTCCAAATTTTCAGCGAGACTCTTATGGGACCCGTGTTCTTCGAGTTCATCCAGAGGAAGGGCGATGACGGATTCGGCGAGGGCAACTTCAAGGCCCTGTTCGAGTCTATTGAGAGAGATCAGGTGAGGCGCGGCGTTCTTACAGCTGACTGA",Non-resistant,100,0,0,0,16,Non-resistant,100,0,0,0,16
"PfHPPDm-F372A-F383W-02: nucleotide sequence encoding Pseudomonas fluorescens HPPD with F372A+F383W; vector DBN11773 (nucleic acid, PfHPPDm-F372A-F383W-02 Nucleotide Sequence, vector DBN11773) DNA: ATGGCCGATTTGTACGAGAACCCAATGGGACTCATGGGTTTCGAGTTCATTGAGTTCGCTTCCCCCACCCCAGGTACTTTGGAGCCTATTTTCGAGATCATGGGCTTCACTAAGGTTGCCACACACAGGTCTAAGAATGTGCATCTCTACCGCCAAGGAGAGATTAACCTGATCCTTAACAATGAGCCTAATAGCATCGCCTCATACTTCGCTGCTGAGCATGGTCCATCTGTTTGCGGCATGGCTTTCAGAGTGAAGGATTCACAAAAGGCCTACAACAGGGCTTTGGAGCTCGGCGCCCAGCCCATTCATATCGACACCGGACCTATGGAGCTGAATCTTCCTGCCATTAAGGGCATCGGCGGAGCTCCATTGTACCTCATTGATCGCTTCGGCGAGGGCTCCTCTATCTACGATATCGACTTCGTGTACCTGGAGGGCGTTGAGAGAAACCCTGTGGGAGCTGGTCTGAAGGTTATCGACCACCTTACTCATAATGTTTACAGAGGAAGGATGGTGTACTGGGCCAACTTCTACGAGAAGCTGTTCAATTTCCGCGAGGCTAGATACTTCGATATTAAGGGCGAGTACACAGGACTTACCTCCAAGGCCATGTCTGCTCCCGACGGTATGATTAGGATCCCATTGAACGAGGAGAGCTCAAAGGGCGCCGGACAGATTGAGGAGTTCCTCATGCAATTCAATGGTGAAGGCATCCAGCACGTTGCTTTCCTGACAGATGACCTTGTGAAGACCTGGGATGCCCTCAAGAAGATTGGCATGAGGTTCATGACCGCTCCACCTGACACTTACTACGAGATGTTGGAGGGACGCCTCCCTGATCATGGCGAGCCCGTTGACCAGCTGCAAGCTAGAGGAATCCTCCTGGATGGTTCCTCTGTGGAGGGCGACAAGAGGCTTTTGCTCCAAATTGCTAGCGAGACTCTTATGGGACCCGTGTGGTTCGAGTTCATCCAGAGGAAGGGCGATGACGGATTCGGCGAGGGCAACTTCAAGGCCCTGTTCGAGTCTATTGAGAGAGATCAGGTGAGGCGCGGCGTTCTTACAGCTGACTGA",Moderately,21,7,8,1,0,Moderately,33,5,6,5,0
